Our source for the EC50 (pM), concentration leading to 50% cell killing, XTT/PMS viability of MDA-MB-231 cells after 72 h [table] values is patent US20170107290A1.

The experiment deals with human Axl on MDA-MB-231 cells (human) (UniProt P30530).
Chain of UniProt P30530 (P30530 26-894 Q764R limits assumed): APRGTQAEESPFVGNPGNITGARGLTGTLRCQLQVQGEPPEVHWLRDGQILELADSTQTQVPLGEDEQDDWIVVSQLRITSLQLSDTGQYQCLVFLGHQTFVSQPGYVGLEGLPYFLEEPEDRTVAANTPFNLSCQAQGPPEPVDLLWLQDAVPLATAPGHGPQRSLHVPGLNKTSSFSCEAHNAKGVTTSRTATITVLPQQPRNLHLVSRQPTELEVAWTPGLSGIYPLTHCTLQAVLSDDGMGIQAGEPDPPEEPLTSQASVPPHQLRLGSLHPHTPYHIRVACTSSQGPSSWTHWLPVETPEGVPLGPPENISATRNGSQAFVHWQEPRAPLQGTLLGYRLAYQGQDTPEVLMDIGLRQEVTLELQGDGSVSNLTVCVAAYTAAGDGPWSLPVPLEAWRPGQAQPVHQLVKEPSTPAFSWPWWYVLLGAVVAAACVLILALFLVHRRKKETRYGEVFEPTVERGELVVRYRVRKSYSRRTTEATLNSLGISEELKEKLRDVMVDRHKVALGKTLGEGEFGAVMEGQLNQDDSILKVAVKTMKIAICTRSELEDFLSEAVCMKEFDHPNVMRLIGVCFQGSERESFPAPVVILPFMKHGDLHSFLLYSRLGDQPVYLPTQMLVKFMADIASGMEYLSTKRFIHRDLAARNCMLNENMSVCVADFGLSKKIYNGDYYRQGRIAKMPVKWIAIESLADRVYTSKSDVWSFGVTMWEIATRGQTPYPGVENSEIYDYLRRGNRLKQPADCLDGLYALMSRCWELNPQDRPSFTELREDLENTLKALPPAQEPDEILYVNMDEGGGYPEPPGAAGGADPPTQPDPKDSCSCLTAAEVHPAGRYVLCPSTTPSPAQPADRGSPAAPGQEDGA

Consider Saporin, for which the EC50 (pM), concentration leading to 50% cell killing, XTT/PMS viability of MDA-MB-231 cells after 72 h [table] is 79800 pM.

Control SAP had an EC50 (pM), concentration leading to 50% cell killing, XTT/PMS viability of MDA-MB-231 cells after 72 h [table] of 4080 pM.
